Data from article PMC2957832 (Biochemical and biophysical research communications, 2010).

Target: the molecule itself
Assay: SEC

B1: Purβ core tryptic fragment (residues 29–305) (domain or fragment, mouse, UniProt O35295 29-305, looked up)
chain: GGGGGGGGPGGEQETQELASKRLDIQNKRFYLDVKQNAKGRFLKIAEVGAGGSKSRLTLSMAVAAEFRDSLGDFIEHYAQLGPSSPEQLAAGAEEGGGPRRALKSEFLVRENRKYYLDLKENQRGRFLRIRQTVNRGGGGFGGGPGPGGLQSGQTIALPAQGLIEFRDALAKLIDDYGGDEDELAGGPGGGAGGPGGGLYGELPEGTSITVDSKRFFFDVGCNKYGVFLRVSEVKPSYRNAITVPFKAWGKFGGAFCRYADEMKEIQERQRDKLYER
For B1, the “stoichiometry N” value was 2.
